One molecule from patent US7521540B2, “CYR61 compositions and methods” (Munin Corporation, priority 1996, dated 2009) can be followed below.

The test system of one data set is Focal Adhesion Kinase. Briefly: Focal adhesion induction. The class given is cell-based. An excerpt:
In addition, Cyr61 induces focal adhesion, i.e., cell surface foci for cytoskeletal attachments. Focal adhesion is effected by cell surface protein complexes or clusters. These protein clusters are complex, including a variety of receptors from the integrin family, and a variety of protein kinases. The induction of focal adhesion by Cyr61 is reflected in the capacity of Cyr61 to induce particular members of these cell surface protein clusters. […] Moreover, indirect immunofluorescence studies have shown that Cyr61 is bound to a receptor (see above) in focal adhesive plaques. The plaques, in turn, are characteristic of focal adhesion protein complexes. Focal Adhesion Kinase, Paxillin, and αVβ3 Integrin are co-localized to the focal adhesion plaques produced by focal adhesion complex formation induced by Cyr61. These focal adhesion protein complexes bind Cyr61 at the cell surface; the complexes also attach internally to the cytoskeleton. Therefore, murine Cyr61, and human Cyr61 (see below), are, in part, adhesion molecules, a characteristic distinguishing Cyr61 from conventional growth factors. […] Subsequently, bound Cyr61 is detected, e.g., by anti-Cyr61 antibody that is labeled using techniques known in the art, such as radiolabelling, fluorescent labeling, or the use of enzymes catalyzing calorimetric reactions. […]

Another data set has as its system macrophages. Briefly: Macrophage binding, antibody inhibition studies. The class given is cell-based. An excerpt:
It is also expected that Cyr61 will promote the migration of macrophages, thus serving a role in attracting and retaining macrophages at the site of a wound. Consequently, Cyr61 is expected to play a role in the inflammatory response of mammals, and modulation of Cyr61 activity is expected to influence the inflammatory response.

The subject of another data set is Limb mesenchymal cells. As to the kind of experiment: Limb mesenchymal cell proliferation in micromass culture. The class given is cell-based, mouse. The protocol:
Ahrens et al., Dev. Biol. 60:69-82 (1977), has reported that these cells, in micromass culture, undergo chondrogenesis in a manner similar to the in vivo process. Mesenchyme cells were obtained from mouse embryonic limb buds by trypsin digestion (1 mg/ml, 1:250 dilution of porcine pancreatic trypsin, Sigma Chemical Co.). Cells were explanted in plastic tissue culture wells and allowed to attach for 2 hours at 37° C., 5% CO2. Cells were then incubated for 24 hours at 37° C., 5% CO2 in MEM with 10% FBS, penicillin (50 U/ml), and streptomycin (50 μg/ml). At this point, the composition of the medium was changed by substituting 4% NuSerum (Collaborative Biomedical Products, Inc.) for 10% FBS. Individual cultures then received Cyr61, fibronectin, heparin (each at approximately 1 μg/ml) or buffer as a negative control. […] Harlow et al.
Cell proliferation during the 4 day culture period was determined by counting cell number and by incorporation of [^3H]-thymidine. To determine cell number, cells were harvested by trypsin/EDTA (Sigma) and counted with a Coulter counter. In parallel cultures, [^3H]-thymidine (1 μCi/ml; ICN) was added to the media for 18 hours and incorporation in the TCA-insoluble layer was determined by liquid scintillation counting.

Data set [1] in a line: Sensitivity of Cyr61 cell-attachment activity to DTT, heat, acid and protease. In kind it is physicochemical. The protocol: Because murine Cyr61 contains 38 cysteines in the 355 amino acid secreted portion, the contribution of disulfide bond formation to Cyr61 tertiary structure was investigated. […] However, Cyr61 was inactivated by heating at 75° C. for 5 minutes, by incubation in 100 mM HCl, or upon extensive digestion with chymotrypsin. […] In addition, Cyr61 is neither phosphorylated nor glycosylated.
Another embodiment of the invention is directed to the use of Cyr61 to mediate cellular attachment to the extracellular matrix. Induction of cellular adhesion was investigated using murine Cyr61, fibronectin, and bovine serum albumin (BSA). Immunological 96-well plates (Falcon brand) were coated with 50 μl of 0.1% BSA in PBS at 4° C. in the presence of 0-30 μg/ml concentrations of murine Cyr61 or fibronectin. After two hours exposure to the coating solution, non-diluted immune or pre-immune antisera (30 μl/well), or affinity-purified anti-Cyr61 antibodies were added. For some wells, the coating mixture was adjusted to 10 mM DTT or 100 mM HCl. After 16 hours incubation, the coating solution was removed and the well surface was blocked with 1% BSA in phosphate-buffered saline (PBS) for 1 hour at room temperature. HUVE cells were plated in Ham's complete F12K medium [GIBCO-BRL, Inc.; Ham, Proc. Natl. Acacd. Sci. (USA) 53:786 (1965)] at 5×10^3-10^4 cells/well. Cycloheximide was added to 100 μg/ml immediately before plating and monensin was added to 1 μM 14 hours before plating. After a 2-hour incubation at 37° C., the wells were washed with PBS and attached cells were fixed and stained with methylene blue. The attachment efficiency was determined by quantitative dye extraction and measurement of the extract absorbance at 650 nm. Oliver et al., J. Cell. Sci. 92:513-518 (1989).

The test system of data set [2] is primary human foreskin fibroblasts. Briefly: Cyr61-regulated gene expression (multi-gene blot, Northern). In kind it is cell-based. The protocol:
Purified, soluble, recombinant Cyr61 protein was added to cultures of primary human foreskin fibroblasts for 24 hours. From these cells, mRNA was isolated for preparation of probes to hybridize to a multi-gene blot (Clontech Atlas Human Array 1.2 cat no. 7850-1) containing about 650 genes. The levels of expression of these genes in Cyr61-treated cells were compared to that of control cells. […] These findings have been confirmed by Northern blot analysis showing increases or decreases of the mRNAs in question in Cyr61-treated cells. A time course of expression changes has been established. In particular, by 6 hours after its addition, Cyr61 has induced expression of VEGF-A mRNA and the induction is still evident at 12 and 24 hours post-addition. Also at 12 and 24 hours post-addition, Cyr61 has induced expression of VEGF-A polypeptide. With respect to VEGF-C, induction of mRNA is clearly evident 12 hours after addition of Cyr61 and the induction persists at least through 24 hours post-addition. Cyr61 is expected to induce the expression of VEGF-C polypeptide with similar kinetics.

B1: Cyr61: Cysteine-rich ECM signaling protein; murine sequence SEQ ID NO:2, recombinant from Baculovirus-infected Sf9 cells (protein, listed as Mus musculus)
chain: MSSSTFRTLAVAVTLLHLTRLALSTCPAACHCPLEAPKCAPGVGLVRDGCGCCKVCAKQLNEDCSKTQPCDHTKGLECNFGASSTALKGICRAQSEGRPCEYNSRIYQNGESFQPNCKHQCTCIDGAVGCIPLCPQELSLPNLGCPNPRLVKVSGQCCEEWVCDEDSIKDSLDDQDDLLGLDASEVELTRNNELIAIGKGSSLKRLPVFGTEPRVLFNPLHAHGQKCIVQTTSWSQCSKSCGTGISTRVTNDNPECRLVKETRICEVRPCGQPVYSSLKKGKKCSKTKKSPEPVRFTYAGCSSVKKYRPKYCGSCVDGRCCTPLQTRTVKMRFRCEDGEMFSKNVMMIQSCKCNYNCPHPNEASFRLYSLFNDIHKFRD
B1: the “phosphorylation of focal adhesion proteins” value in the data set on Focal Adhesion Kinase is listed as “induces the phosphorylation of Focal Adhesion Kinase”. Moreover, the “binding to macrophages” value in the data set with macrophages is recorded as “binds to macrophages via yet another integrin, the αMβ2 integrin”. Besides, the “cell number and DNA synthesis” value with Limb mesenchymal cells is “both increased cell number and enhanced DNA synthesis after 2 and 3 days in culture”. Besides, in data set [1] (10 mM dithiothreitol (DTT), 16 hours), the “ability to mediate cell attachment after treatment” value is “did not affect the ability of Cyr61 to mediate cell attachment”. In data set [1] (75° C. for 5 minutes), the activity after heating result is recorded as “inactivated”. Besides, in data set [1] (extensive digestion with chymotrypsin), the activity after protease result is on record as “inactivated”. The activity after acid entry in data set [1] (incubation in 100 mM HCl) is listed as “inactivated”. Also, in data set [2], the “time after addition at which VEGF-A mRNA is induced” value is not above 6 h and the “time after addition at which VEGF-C mRNA induction is clearly evident” value was determined as 12 h. Moreover, in data set [2] (soluble Cyr61, 24 hours), the “expression of angiogenic molecules” value was “induction of the angiogenic molecules VEGF1 and VEGF3”; the “expression of inflammation-related cytokines” value is “induction of the inflammation-related cytokines IL-1 and IL-6”; the “expression of matrix degrading enzymes” value was “upregulation of matrix degrading enzymes including MMP1, MMP3, and uPA”; the “expression of matrix protein genes” value is “downregulation of matrix protein genes such as the type I collagen chain gene”.
